Paper doi:10.1101/2025.10.29.685329 (bioRxiv, 2025)
One block for each binder: values may come before it. No end group written: not given here.

Key:
[1] = biological target: T1, GST-PGK1 (UniProt P00558 1-417); assay: co-sedimentation
T1 sequence (looked up): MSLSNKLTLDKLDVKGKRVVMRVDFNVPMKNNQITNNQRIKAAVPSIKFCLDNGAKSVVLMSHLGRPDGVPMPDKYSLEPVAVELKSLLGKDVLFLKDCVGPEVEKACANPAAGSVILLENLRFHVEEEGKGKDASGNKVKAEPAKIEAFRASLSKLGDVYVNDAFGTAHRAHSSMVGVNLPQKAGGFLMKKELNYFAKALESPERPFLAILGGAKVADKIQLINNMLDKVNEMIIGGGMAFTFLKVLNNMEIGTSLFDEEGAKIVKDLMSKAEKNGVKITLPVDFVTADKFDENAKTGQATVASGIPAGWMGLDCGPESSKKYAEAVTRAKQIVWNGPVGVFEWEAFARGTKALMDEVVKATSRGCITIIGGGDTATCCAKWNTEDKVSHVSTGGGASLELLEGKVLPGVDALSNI

[2] = biological target: T2, His-PGK1 (UniProt P00558 1-417); assay: pull-down
T2 sequence (looked up): T1 sequence (looked up)

binding result [1]: binds
Binder: HHHHHHSAFSNLFGGEPLSYTRFSL (not fully specified) [His-Tyr peptide (lipid-linked tyrosine-based motif)]

binding result [2]: binds
B1: GST-TfR1-61 (TfR cyto), wild type (domain or fragment, UniProt P02786 1-61, looked up)
chain: MMDQARSAFSNLFGGEPLSYTRFSLARQVDGDNSHVEMKLAVDEEENADNNTKANVTKPKR
